In series [1] the test system is protamine (sulfate salt) (salmon). Kind of series: ITC. The following applies: ITC in Hepes buffer, 25 C (salt and pH not given in the material), short duplexes 10 uM (strand concentration), protamine 100 uM.
Series [2] has as its system GCDNA (DNA, duplex) GCGCGCGCGC
In words: ITC. The conditions noted are these: Hepes buffer, 25 °C; 200 µM Net titrated into 10 µM DNA (strand concentration).

In series [3] the test system is GCDNA (DNA, duplex) GCGCGCGCGC
In words: ITC, one set of sites fit. The following applies: Na+ 100 mM (from the 10 mM Hepes/100 mM NaCl UV and gel buffer; the ITC buffer is only given as Hepes buffer), 25 °C, 500 µM EtBr titrated into 10 µM DNA (strand concentration).

In series [4] the test system is ATDNA (DNA, duplex) GCAAATTTGC
Kind of series: ITC, one set of sites fit. The following applies: Na+ 100 mM (from the 10 mM Hepes/100 mM NaCl UV and gel buffer; the ITC buffer is only given as Hepes buffer), 25 °C, 200 µM EtBr titrated into 10 µM DNA (strand concentration).

Where [5] appears, read: 20 uM ethidium bromide (EtBr-bound DNA).

Regarding CTDNA (calf thymus DNA), the Ka in series [1] (60 uM ethidium bromide (EtBr-bound DNA)) was 6.36e+07 M⁻¹; in series [1] (60 uM netropsin (Net-bound DNA)) it was 5.54e+07 M⁻¹; in series [1] (no drug, CTDNA titrated into protamine) it was 550000 M⁻¹.
In the case of `Cn1cc(NC(=O)c2cc(NC(=O)CN=C(N)N)cn2C)cc1C(=O)NCCC(=N)N`, in series [2], the binding result is “no”.
As for GCGCGCGCGC (double strand) [GCDNA], the Ka in series [1] (setting [5]) came to 4.5e+06 M⁻¹; in series [1] (20 uM netropsin) it was 4.5e+07 M⁻¹; in series [1] (no drug), 3.4e+07 M⁻¹.
As for GCAAATTTGC (double strand) [ATDNA], the Ka in series [1] (setting [5]) is 3.9e+06 M⁻¹; in series [1] (20 uM netropsin (Net-bound DNA)), 1.89e+08 M⁻¹; in series [1] (no drug), 1.4e+08 M⁻¹.
Consider `CC[n+]1c(-c2ccccc2)c2cc(N)ccc2c2ccc(N)cc21`, for which the KA came out at 145000 M⁻¹ in series [3] and 165000 M⁻¹ in series [4].
